Results reported in paper PMC9165289, “Theranostic PSMA ligands with optimized backbones for intraoperative multimodal imaging and photodynamic therapy of prostate cancer” (European Journal of Nuclear Medicine and Molecular Imaging, 2022).
Where two headings read alike, the source gives them in different places.

Tests used:
[1] = test system: LS174T-PSMA and LS174T wildtype xenografts; test: PSMA-N064 blocking experiment, ex vivo biodistribution; assay type: in vivo, BALB/c nude mice; conditions: 0.3 nmol, 10 MBq, i.v., 2 h p.i., n=5
Experimental: (§1) All animal experiments were approved by the institutional Animal Welfare Committee of the Radboud University Medical Center and were conducted in accordance to the guidelines of the Revised Dutch Act on Animal Experimentation. Animal experiments were performed in 8–10 weeks old male BALB/c nude mice (Janvier). The mice were housed in individually ventilated cages (Blue line IVC, 3–5 mice per cage), under standard non-sterile conditions with cage enrichment present. There was free access to chlorophyll-free animal chow (Sniff Voer) and water. Mice were subcutaneously inoculated with 3.0 × 10^6 LS174T-PSMA cells in the right flank and 1.5 × 10^6 LS174T WT cells in the left flank (diluted in 200-µl RPMI 1640 medium). When xenografts were approximately 0.5 cm^3 (10–14 days after injection), mice were block-randomized into groups based on tumor size. The researchers were not blinded for the experimental groups.
Five mice per group were intravenously injected with either 0.1 nmol PSMA-N064, 0.3 nmol PSMA-N064, 0.1 nmol PSMA-N064 + 10 nmol unlabeled PSMA-617 (100x excess) or PSMA-617. Ligands were labeled with 10 MBq ^111In in PBS+0.5% (w/v) BSA. For the ex vivo biodistribution four groups (one for each experimental condition) of five mice were included. Two hours p.i., all mice from all groups were euthanized by CO2/O2-asphyxiation and relevant tissues were dissected, weighed and measured for radioactivity in a gamma-counter (2480 WIZARD^2 Automatic Gamma Counter, PerkinElmer).

[2] = test system: LS174T-PSMA cells; parameters: method as in PMID 33408764; conditions: head-to-head comparison; cited from earlier work
[3] = ex vivo biodistribution of 111In-labeled ligands; parameters: species or system BALB/c nude mice; conditions: male, BALB/c nude, mouse, iv, 0.3 nmol, total radioactivity, 2 h p.i.; for tissue uptake at 2 h: 10 MBq/mouse, i.v.
Experimental: as §1
(§2) Mice were intravenously injected with 0.3 nmol PSMA ligand, labeled with 10 MBq ^111In (molar activity 33.3 MBq/nmol) in PBS + 0.5% (w/v) BSA. For the ex vivo biodistribution, five groups (one group for each ligand) of four mice were included. Two hours p.i., all mice were euthanized by CO2/O2-asphyxiation. For two mice of each group (2 mice/ligand), background-subtracted fluorescence images were acquired with the IVIS imaging system (Xenogen VivoVision IVIS Lumina II, PerkinElmer), with a 640-nm excitation filter and a Cy5.5 emission filter and an acquisition time of 10 s. Next, µSPECT/CT imaging was performed in the same two mice per group, with a 1.0-mm diameter pinhole mouse collimator tube (U-SPECT II, MILabs). Mice were scanned for 30 min followed by a CT scan for anatomical reference (spatial resolution 160 μm, 615 μA, 65 kV). MILabs reconstruction software was used to reconstruct the µSPECT/CT scans, via an ordered-subset expectation maximization algorithm, energy windows 154–188 keV and 220–270 keV, 3 iterations, 16 subsets, and voxel size of 0.75 mm. SPECT/CT maximum intensity projections (MIPs) were created using the Inveon Research Workplace software (Siemens Preclinical Solutions, version 4.1). NIR fluorescence images were analyzed using Living Image software (PerkinElmer, version 4.2). After imaging, relevant tissues were dissected, weighed, and measured for radioactivity in a gamma-counter (2480 WIZARD^2 Automatic Gamma Counter, PerkinElmer). In addition, a blocking experiment with PSMA-N064 and PSMA-617 was performed. Full experimental procedures and results can be found in the supplementary data (Page 5, Supplementary Fig. 3).

[4] = test system: LS174T-PSMA and LS174T wildtype xenografts; test: ex vivo biodistribution of 111In-labeled ligands; parameters: species or system BALB/c nude mice; conditions: 0.3 nmol, 2 h p.i.
Experimental: as §1, §2

[5] = test system: LS174T-PSMA cells; test: in vitro binding and internalization assay; assay type: cell-based, human; conditions: for PSMA-specific membrane binding and internalization: corrected for non-specific binding (2-PMPA)
Experimental: The binding and internalization characteristics of the ligands were determined using LS174T-PSMA cells. Cells were cultured to confluency in 6-well plates followed by incubation with 50,000 counts per minute of ^111In-labeled ligand (0.1–0.25 pmol/well) in 1-ml RPMI + 0.5% BSA (37 °C, 2 h). Non-specific binding was determined by coincubation with 2(phosphonomethyl)-pentane-1,5-dioic acid (2-PMPA, 21.57 µM). PSMA-specific binding was defined as total binding minus the non-specific binding. To retrieve the membrane-bound fraction, cells were washed twice with PBS and incubated for 10 min at 0 °C with acid buffer (154-mM NaCl, 0.1 M acetic acid, pH 2.6). After incubation, the membrane-bound fraction was collected. Then, cells were washed and lysed with 0.1 M NaOH, and the cell lysate (intracellular activity) was collected. Intracellular and membrane-bound activity fractions were measured in a gamma-counter (2480 WIZARD^2 Automatic Gamma Counter, PerkinElmer).

[6] = test system: PSMA; parameters: method as in PMID 27789722, PMID 29651565; conditions: reported in the literature; cited from earlier work
[7] = test system: PSMA; parameters: method as in PMID 27789722, PMID 29651565; conditions: reported in the literature; cited from earlier work; remark: listed apart in the source
[8] = test system: LS174T-PSMA and LS174T wildtype xenografts; test: µSPECT/CT and NIR fluorescence imaging; assay type: in vivo, BALB/c nude mice; conditions: 0.3 nmol, 10 MBq/mouse, 2 h p.i.
Description: as §2, with “SPECT/CT maximum intensity projections (MIPs) were created using the Inveon Research Workplace software (Siemens Preclinical Solutions, version 4.1).” left out, “In addition, a blocking experiment with PSMA-N064 and PSMA-617 was performed. Full experimental procedures and results can be found in the supplementary data (Page 5, Supplementary Fig. 3).” left out

[9] = LS174T wildtype tumor, n=4, read-out: Biodistribution Tumor- LS174T
[10] = LS174T-PSMA tumor, n=4, read-out: Biodistribution Tumor+ LS174T-PSMA
[11] = adrenals, n=4, read-out: Biodistribution Adrenals
[12] = blood, n=4, read-out: Biodistribution Blood
[13] = bone marrow, n=4, read-out: Biodistribution Bone marrow
[14] = bone, n=4, read-out: Biodistribution Bone
[15] = duodenum, n=4, read-out: Biodistribution Duodenum
[16] = heart, n=4, read-out: Biodistribution Heart
[17] = kidney, n=4, read-out: Biodistribution Kidney
[18] = liver, n=4, read-out: Biodistribution Liver
[19] = lung, n=4, read-out: Biodistribution Lung
[20] = muscle, n=4, read-out: Biodistribution Muscle
[21] = pancreas, n=4, read-out: Biodistribution Pancreas
[22] = prostate, n=4, read-out: Biodistribution Prostate
[23] = salivary glands, n=4, read-out: Biodistribution Salivary glands
[24] = spleen, n=4, read-out: Biodistribution Spleen
[25] = stomach, n=4, read-out: Biodistribution Stomach
[26] = tumor (LS174T-PSMA xenograft) / blood, read-out: Tumor/Blood ratio
[27] = tumor (LS174T-PSMA xenograft) / kidney, read-out: Tumor/Kidney ratio
[28] = tumor (LS174T-PSMA xenograft) / liver, read-out: Tumor/Liver ratio
[29] = tumor (LS174T-PSMA xenograft) / spleen, read-out: Tumor/Spleen ratio

Row | Compound | tissue uptake at 2 h [3, 9] [%ID/g] | tissue uptake at 2 h [3, 10] [%ID/g] | tissue uptake at 2 h [3, 11] [%ID/g] | tissue uptake at 2 h [3, 12] [%ID/g] | tissue uptake at 2 h [3, 13] [%ID/g] | tissue uptake at 2 h [3, 14] [%ID/g] | tissue uptake at 2 h [3, 15] [%ID/g] | tissue uptake at 2 h [3, 16] [%ID/g] | tissue uptake at 2 h [3, 17] [%ID/g] | tissue uptake at 2 h [3, 18] [%ID/g] | tissue uptake at 2 h [3, 19] [%ID/g] | tissue uptake at 2 h [3, 20] [%ID/g] | tissue uptake at 2 h [3, 21] [%ID/g] | tissue uptake at 2 h [3, 22] [%ID/g] | tissue uptake at 2 h [3, 23] [%ID/g] | tissue uptake at 2 h [3, 24] [%ID/g] | tissue uptake at 2 h [3, 25] [%ID/g] | tissue to tissue ratio at 2 h [3, 26] | tissue to tissue ratio at 2 h [3, 27] | tissue to tissue ratio at 2 h [3, 28] | further results
1 | O=C(O)CC[C@H](NC(=O)N[C@@H](CCCCNC(=O)[C@H](Cc1ccc2ccccc2c1)NC(=O)[C@H]1CC[C@H](CNC(=O)CN2CCN(CC(=O)O)CCN(CC(=O)O)CCN(CC(=O)O)CC2)CC1)C(=O)O)C(=O)O [PSMA-617] |  |  |  |  |  |  |  |  |  |  |  |  |  |  |  |  |  |  |  |  | Biodistribution Tumor+ LS174T-PSMA [1]: 19 ± 2 %ID/g; internalization ratio [2]: 46%
2 | C[Si](C)(CCC[N+](CCCS(=O)(=O)[O-])(CCCS(=O)(=O)O)CCCS(=O)(=O)O)O[Si]1(O[Si](C)(C)CCC[N+](CCCS(=O)(=O)[O-])(CCCS(=O)(=O)O)CCCS(=O)(=O)O)n2c3c4ccccc4c2N=C2N=C(N=c4c5c(OCCCOC(=O)NCCCCCC(=O)NCCCC[C@H](NC(=O)CN6CCN(CC(=O)O)CCN(CC(=O)O)CCN(CC(=O)O)CC6)C(=O)NCCCC[C@H](NC(=O)[C@H](CCC(=O)O)NC(=O)c6cccnc6)C(=O)NCc6ccc(C(=O)N[C@@H](Cc7ccc8ccccc8c7)C(=O)NCCCC[C@H](NC(=O)N[C@@H](CCC(=O)O)C(=O)O)C(=O)O)cc6)cccc5c(n41)=NC1=NC(=N3)c3ccccc31)c1ccccc12 [PSMA-N02] | 0.6 ± 0.2 | 23 ± 2 | 1.2 ± 0.2 | 0.5 ± 0.01 | 0.1 ± 0.1 | 0.5 ± 0.04 | 0.4 ± 0.05 | 0.4 ± 0.05 | 99 ± 12 | 1.1 ± 0.1 | 1 ± 0.3 | 0.2 ± 0.04 | 0.3 ± 0.05 | 0.5 ± 0.1 | 0.6 ± 0.1 | 1.6 ± 0.2 | 0.5 ± 0.1 | 43.1 ± 4.1 | 0.3 ± 0.01 | 21.6 ± 1.6 | tissue to tissue ratio at 2 h [3, 29]: 14.3 ± 2.5; Tumor/Negative tumor ratio [4]: 42.2 ± 16.4; Tumor/Prostate ratio [4]: 46.9 ± 13.8; Tumor/Salivary gland ratio [4]: 39.2 ± 3.7; internalization percentage (percentage of cell-associated ligand that was internalized) ([5]; 37 °C, 2 h): 73–90%; PSMA-specific membrane binding and internalization [5]: highest membrane-bound and internalized fraction
3 | PSMA-1007 |  |  |  |  |  |  |  |  |  |  |  |  |  |  |  |  |  |  |  |  | IC50 [6]: 4.2 ± 0.5 nM; internalization ratio [7]: 67%
4 | CC(=O)N[C@@H](CCCCNC(=O)CCCCCNC(=O)[C@H](CCC(=O)O)NC(=O)[C@H](CCC(=O)O)NC(=O)[C@H](Cc1ccccc1)NC(=O)[C@H](CCCCNC(=O)CCCCCNC(=O)OCCCOc1cccc2c3n4c(c12)=NC1=NC(=Nc2c5ccccc5c(n2[Si]4(O[Si](C)(C)CCC[N+](CCCS(=O)(=O)[O-])(CCCS(=O)(=O)O)CCCS(=O)(=O)O)O[Si](C)(C)CCC[N+](CCCS(=O)(=O)[O-])(CCCS(=O)(=O)O)CCCS(=O)(=O)O)N=C2N=C(N=3)c3ccccc32)c2ccccc21)NC(=O)CCC(C(=O)O)N1CCN(CC(=O)O)CCN(CC(=O)O)CCN(CC(=O)O)CC1)C(=O)O (some centres unmarked) [PSMA-N064inc, reference compound] | 0.4 ± 0.1 | 0.5 ± 0.2 | 0.7 ± 0.6 | 0.3 ± 0.2 | 0.1 ± 0.03 | 0.2 ± 0.1 | 0.2 ± 0.04 | 0.3 ± 0.1 | 47 ± 6 | 0.6 ± 0.1 | 0.3 ± 0.1 | 0.1 ± 0.1 | 0.1 ± 0.04 | 0.6 ± 0.7 | 0.3 ± 0.05 | 0.2 ± 0.04 | 0.4 ± 0.1 | 1.5 ± 0.6 | 0.01 ± 0.003 | 0.7 ± 0.2 | tissue to tissue ratio at 2 h [3, 29]: 2.1 ± 0.5; Tumor/Negative tumor ratio [4]: 1.1 ± 0.5; Tumor/Prostate ratio [4]: 1.3 ± 0.9; Tumor/Salivary gland ratio [4]: 1.6 ± 0.5; renal ligand accumulation on images [8]: lowest; PSMA-specific membrane binding and internalization [5]: no binding and internalization
